Data taken from publication PMC11467371, “Structure‐based design of antibodies targeting the EBNA1 DNA‐binding domain to block Epstein–Barr virus latent infection and tumor growth”.

B1: DNA02 (dsDNA)
DNA 1: GGGTAACCACTGTTACCC
DNA 2: GGGTAACAGTGGTTACCC
B2: DNA01 (dsDNA)
DNA 1: GGGTAGCATATGCTACCC
DNA 2: GGGTAGCATATGCTACCC

Target: EBNA1 DBD (Epstein-Barr virus (strain B95.8), UniProt P03211 461-607)
Assay: fluorescence polarization; EC50; 1 mM MgCl2; FP: 200 mM NaCl, 20 mM Tris-HCl pH 7.5, 1 mM MgCl2, 0.01% CHAPS; 20 nM FAM probe stock mixed 1:1 with 0.31-20 µM protein, 20 min; temperature not stated
Conditions: protein: recombinant, tags: N-terminal 6xHis-SUMO, removed by ULP1, chain copies: 2, label: 5'-FAM, called 18-bp

Chain of EBNA1 DBD (P03211 461-607): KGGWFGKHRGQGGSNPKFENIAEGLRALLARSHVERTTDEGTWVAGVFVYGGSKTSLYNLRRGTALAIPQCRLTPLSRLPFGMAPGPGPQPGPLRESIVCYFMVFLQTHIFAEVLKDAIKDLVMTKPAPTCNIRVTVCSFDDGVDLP

Binder | apparent K (half saturation) (only the FAM strand is printed, complement implied) [nM] | apparent K (half saturation) (blunt, one self-complementary strand printed, 2 copies) [nM]
B1 | 1540 | 
B2 |  | 2130
